# Where no end group is shown, it is not given here. [ ]: non-standard residue; d: D form. 1Nal = N[C@@H](Cc1cccc2ccccc12)C(=O)O; 2Nal = N[C@@H](Cc1ccc2ccccc2c1)C(=O)O; Tic = O=C(O)[C@@H]1Cc2ccccc2CN1; Aib = CC(C)(N)C(=O)O
# B1: CPI-1372 (peptide)
# peptide: MARSLIWEPARRWRR
# B2: CPI-1390 (peptide)
# peptide: FARSLI[2Nal]AARR[2Nal]RR
# B3: CPI-1289 (peptide)
# peptide: MARSLIWRPAKARRR
# B4: CPI-1292 (peptide)
# peptide: ARSLIWRPAKAKKK
# B5: CPI-1332 (peptide)
# peptide: MARSLIWRPARRRRR
# B6: CPI-1382 (peptide)
# peptide: ARSIWRLARRWRR
# B7: CPI-1373 (peptide)
# peptide: MARSLIWRPAERWRR
# B8: CPI-1374 (peptide)
# peptide: MAESLIWRPARRWRR
# B9: CPI-1297 (peptide)
# peptide: ARSLIWRPARRRRR
# B10: CPI-1377 (peptide)
# peptide: MARSLIWRPAREWRR
# B11: CPI-1300 (peptide)
# peptide: FHEFRSLIWRPAKAKKK
# B12: CPI-1299 (peptide)
# peptide: YHEFRSLIWRPAKAKKK
# B13: CPI-1365 (peptide)
# peptide: ARSLI[2Nal]RAARR[2Nal]RR
# notes: also called ARSLI(2-Nal)RAARR(2-Nal)RR
# B14: CPI-1443 (peptide)
# peptide: ARSLI[2Nal]RHARR[2Nal]RR
# notes: also called ARSLI(2-Nal)RHARR(2-Nal)RR
# B15: CPI-1701 (peptide)
# peptide: ARSLI[2Nal]RPARR[2Nal]RR
# notes: also called ARSLI(2-Nal)RPARR(2-Nal)RR
# B16: CPI-1366 (peptide)
# peptide: Ac-ARSLI[2Nal]RAARR[2Nal]RR
# notes: also called Ac-ARSLI(2-Nal)RAARR(2-Nal)RR
# B17: CXCR4-GST (receptor, human, UniProt P61073 1-352, looked up)
# chain: MEGISIYTSDNYTEEMGSGDYDSMKEPCFREENANFNKIFLPTIYSIIFLTGIVGNGLVILVMGYQKKLRSMTDKYRLHLSVADLLFVITLPFWAVDAVANWYFGNFLCKAVHVIYTVNLYSSVLILAFISLDRYLAIVHATNSQRPRKLLAEKVVYVGVWIPALLLTIPDFIFANVSEADDRYICDRFYPNDLWVVVFQFQHIMVGLILPGIVILSCYCIIISKLSHSKGHQKRKALKTTVILILAFFACWLPYYIGISIDSFILLEIIKQGCEFENTVHKWISITEALAFFHCCLNPILYAFLGAKFKTSAQHALTSVSRGSSLKILSKGKRGGHSSVSTESESSSFHSS
# notes: whole, on cells; Full-length receptor expressed by baculovirus in High Five or Sf9 insect cells; assayed as membrane preparations or solubilized and immobilized on glutathione resin; also called GST-CXCR4 (High Five); CXCR4 with C-terminal GST tag; not shown: C-terminal GST tag
# B18: CPI-1330 (peptide)
# peptide: FARSLIERAARRWRR
# B19: CPI-1250 (peptide)
# peptide: RSLIWRPAK
# B20: CPI-1303 (peptide)
# peptide: MARSLIWRP[Aib]KAKKK
# B21: CPI-1425 (peptide)
# peptide: ARSLIWRLARRWRR
# B22: CPI-1221 (peptide)
# peptide: MARSLIWRPAKAKKK
# notes: Original 15-mer consensus peptide; also called M-A-R-S-L-I-W-R-P-A-K-A-K-K-K
# B23: CPI-1307 (peptide)
# peptide: MARSAIWRPAKAKKK
# B24: CPI-1305 (peptide)
# peptide: MARSLIWAPAKAKKK
# B25: CPI-1328 (peptide)
# peptide: MARALIWRPAKAKKK
# B26: CPI-1301 (peptide)
# peptide: MARSLIWRPAKAAKK
# B27: CPI-1298 (peptide)
# peptide: MARSTIWRPAKAKKK
# B28: CPI-1310 (peptide)
# peptide: MARSLIWRPAKAKAK
# B29: CPI-1306 (peptide)
# peptide: MARSLIWRPAAAKKK
# B30: CPI-1334 (peptide)
# peptide: MARSLIWGPAKAKKK
# B31: CPI-1295 (peptide)
# peptide: MARSLIWRAAKAKKK
# B32: SEQ ID NO 12 (Table 1 row without a CPI number) (peptide)
# peptide: MAASLIWRPAKAKKK
# B33: CPI-1312 (peptide)
# peptide: MARSLIWRPAKAKKA
# B34: CPI-1296 (peptide)
# peptide: MARSFIWRPAKAKKK
# B35: CPI-1308 (peptide)
# peptide: MARSLAWRPAKAKKK
# B36: CPI-1329 (peptide)
# peptide: MAASLIWRPAKAKKK
# B37: CPI-1304 (peptide)
# peptide: MARSLIARPAKAKKK
# B38: CPI-1331 (peptide)
# peptide: KKKARSLIWRPAKAKKK
# B39: CPI-1456 (peptide)
# peptide: RRARSLI[2Nal]RAARR[2Nal]RR
# notes: also called RRARSLI(2-Nal)RAARR(2-Nal)RR
# B40: CPI-1309 (peptide)
# peptide: MARSLI[2Nal]RPAKAKKK
# B41: CPI-1389 (peptide)
# peptide: FARSLI[2Nal]EAARR[2Nal]RR
# notes: also called FARSLI(2-Nal)EAARR(2-Nal)RR
# B42: CPI-1249 (peptide)
# peptide: MARSLIWRPAKKK
# B43: CPI-1458 (peptide)
# peptide: ARSLI[2Nal]R[Tic]ARR[2Nal]RR
# B44: CPI-1302 (peptide)
# peptide: MARSLIWR[Tic]AKAKKK
# B45: CPI-1247 (peptide)
# peptide: RSLIWRPAKAKKK
# B46: CPI-1248 (peptide)
# peptide: ISLIWRPAKAKKK
# B47: CPI-1291 (peptide)
# peptide: MARSLI[1Nal]RPAKAKKK
# B48: CPI-1500 (peptide)
# peptide: ARSLI[2Nal]R[Tic]ARR[2Nal]RR-NH2
# modifications: N-terminus assumed
# SMILES: CC[C@H](C)[C@H](NC(=O)[C@H](CC(C)C)NC(=O)[C@H](CO)NC(=O)[C@H](CCCNC(=N)N)NC(=O)[C@H](C)N)C(=O)N[C@@H](Cc1ccc2ccccc2c1)C(=O)N[C@@H](CCCNC(=N)N)C(=O)N1Cc2ccccc2C[C@H]1C(=O)N[C@@H](C)C(=O)N[C@@H](CCCNC(=N)N)C(=O)N[C@@H](CCCNC(=N)N)C(=O)N[C@@H](Cc1ccc2ccccc2c1)C(=O)N[C@@H](CCCNC(=N)N)C(=O)N[C@@H](CCCNC(=N)N)C(N)=O
# Columns and labels:
# [1] = molecular target: T1, CXCR4 (CXC chemokine receptor 4), tagged construct not stated (human, UniProt P61073 1-352); experiment: inhibition of [125I]-SDF1α binding to CXCR4
# T1 construct: whole, on cells; Receptor of the radioligand displacement assays of the peptides; in insect cell membranes; also called the receptor; CXCR4-containing membranes
# [2] = molecular target: T1, CXCR4 (CXC chemokine receptor 4), …; experiment: binding inhibition curves, [125I]-SDF1α displacement
# SDF-1α = molecular target: T2, SDF-1α (UniProt P48061-2 22-89, 125I label on the radioligand form); experiment: radioligand saturation binding, [125I]-SDF-1α on membrane preparations of GST-CXCR4 (High Five)
# T2 construct: Labelled and unlabelled forms are kept as one molecule
# Experimental: Whole cells from Sf9 and High five cell lines were lysed using hypotonic buffers (10 mM Tris, pH 7.4, 5 mM EDTA), and membrane preparations were made by homogenization and centrifugation using standard techniques known to those skilled in the art. […] For filtration and washing, the reaction was transferred to Millipore Multiscreen filter plates (HATF 0.45 μm; pre-blocked with 10% BSA) (Bedford, Mass.), filtered using vacuum, washed 4-5 times with 200 μL ice-cold buffer, and radioactive counts bound were detected using scintillation counting. All points were done in triplicate. Uninfected cells were used as a control for this experiment. […] Analyses of KD and IC₅₀ were performed using non-linear curve fitting in Kaleidagraph (software program sold by Synergy Software, Reading, Pa.).
# [3] = molecular target: T1, CXCR4 (CXC chemokine receptor 4), …; experiment: radioligand displacement of [125I]-SDF-1 from CXCR4
# [4] = molecular target: CXCR4 as HIV co-receptor in the HIV infectivity assay (HELA / Magi cells) (UniProt P61073 1-352, limits assumed); experiment: cell-based or functional assay
# T2 sequence (P48061 22-89 limits assumed): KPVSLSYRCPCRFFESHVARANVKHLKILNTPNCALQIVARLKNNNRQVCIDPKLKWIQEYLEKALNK
binder,measurement,setting,value
B1,binding result,[1],binds
B2,binding result,[1],binds
B3,binding result,[1],binds
B4,binding result,[1],binds
B5,binding result,[1],binds
B6,binding result,[1],binds
B7,binding result,[1],binds
B8,binding result,[1],binds
B9,binding result,[1],binds
B10,binding result,[1],binds
B11,binding result,[1],binds
B12,binding result,[1],binds
B13,binding result,[2],binds
B14,binding result,[1],binds
B15,binding result,[1],binds
B16,binding result,[1],binds
B17,Kd,SDF-1α,3.27 nM
B18,binding result,[1],binds
B19,binding result,[1],binds
B20,binding result,[1],binds
B21,binding result,[1],binds
B22,IC50,[3],~60000 nM
B23,binding result,[1],binds
B24,binding result,[1],binds
B25,binding result,[1],binds
B26,binding result,[1],binds
B27,binding result,[1],binds
B28,binding result,[1],binds
B29,binding result,[1],binds
B30,binding result,[1],binds
B31,binding result,[1],binds
B32,binding result,[1],binds
B33,binding result,[1],binds
B34,binding result,[1],binds
B35,binding result,[1],binds
B36,binding result,[1],binds
B37,binding result,[1],binds
B38,binding result,[1],binds
B39,binding result,[1],binds
B40,binding result,[1],binds
B41,binding result,[1],binds
B42,binding result,[1],binds
B43,binding result,[1],binds
B44,binding result,[1],binds
B45,binding result,[1],binds
B46,binding result,[1],binds
B47,binding result,[1],binds
B48,"inhibition of HIV IIIb infection, EC50",[4],280 nM
